According to patent US8003342:

Assays:
[1] = biological target: T1, rat brain farnesyl:protein transferase (rat, UniProt Q04631 2-377; Q02293 1-437); experiment: cell-based or functional assay
[2] = biological target: T1, rat brain farnesyl:protein transferase; experiment: cell-based or functional assay; remark: listed apart in the source

## CVAM
[1]
  fold decrease of affinity against CVIM, from the concentration required for 50% inhibition: 30 fold

## CIKS
[2]
  Concentration for 50% Inhibition: 100 µM
